± gives the uncertainty stated by the source.

The chains are these.
B1: Apoptosis-associated speck-like protein containing a CARD, residues 114 to 194; numbered along this chain, Q9ULZ3 (parent)
chain: FIDQHRAALIARVTNVEWLLDALYGKVLTDEQYQAVRAEPTNPSKMRKLFSFTPAWNWTCKDLLLQALRESQSYLVEDLER

Variants of B1 are the subject of this series. Kind of series: abundance fitness (aPCA) (normalised: wild type 0, dead -1); higher = more abundant; growth selection in yeast, the domain comes from the species named. The settings on record: Homo sapiens.
For FIDQHRAALIARVTNVEWLLDALYGKVLTDEQYQAVRAEPTNPFKMRKLFSFTPAWNWTCKDLLLQALRESQSYLVEDLER [S44F], the abundance fitness was -0.842 ± 0.2.

Turning to FIDQHRAALIARVTNVEWLLDALYGKVLTDEQYQAVRAEPTNPSKMRKLFSCTPAWNWTCKDLLLQALRESQSYLVEDLER [F52C], the abundance fitness was -0.966 ± 0.18.

As to FIDQHRAALIARVTNVEWLLDALYGKVLTDEQYQAVRAEPTNPSKMRKLFSRTPAWNWTCKDLLLQALRESQSYLVEDLER [F52R], the abundance fitness was -0.824 ± 0.096.

As to FIDQHRAALIARVTNVEWLLDALYGKVLTDEQWQAVRAEPTNPSKMRKLFSFTPAWNWTCKDLLLQALRESQSYLVEDLER [Y33W], the abundance fitness is -0.524 ± 0.11.

In the case of FIDQHRAALIARVTNVEWLLDALYHKVLTDEQYQAVRAEPTNPSKMRKLFSFTPAWNWTCKDLLLQALRESQSYLVEDLER [G25H], the abundance fitness is -0.213 ± 0.12.

With FIDQHRAALIARVTNVEWLLDALYLKVLTDEQYQAVRAEPTNPSKMRKLFSFTPAWNWTCKDLLLQALRESQSYLVEDLER [G25L], the abundance fitness is -0.45 ± 0.058.

For FIDQHRAALIARVTNVEWLLDALYGKVLTDEQYQAVRAEPCNPSKMRKLFSFTPAWNWTCKDLLLQALRESQSYLVEDLER [T41C], the abundance fitness was -0.28 ± 0.077.

Regarding FIDQHRAALIARVTNVEWLLDALYGKVLTDEQYEAVRAEPTNPSKMRKLFSFTPAWNWTCKDLLLQALRESQSYLVEDLER [Q34E], the abundance fitness was -0.052 ± 0.081.

As for FIDQHRAALIARVTRVEWLLDALYGKVLTDEQYQAVRAEPTNPSKMRKLFSFTPAWNWTCKDLLLQALRESQSYLVEDLER [N15R], the abundance fitness is -0.359 ± 0.06.

For FIDQHRAALIARVTNVEWLLDALYGKVLTDEQYQAVRAEPTNPSKMRKLFSFTPANNWTCKDLLLQALRESQSYLVEDLER [W56N], the abundance fitness is -0.83 ± 0.25.

As for FIDQHRAALIARVTNVEWLLDALYGKVLTDEQYQAVRAEPTNPSKMRKLFSFTPASNWTCKDLLLQALRESQSYLVEDLER [W56S], the abundance fitness was -0.813 ± 0.095.

With FIDQHRAALIARVTNVEWLLDALFGKVLTDEQYQAVRAEPTNPSKMRKLFSFTPAWNWTCKDLLLQALRESQSYLVEDLER [Y24F], the abundance fitness was -0.594 ± 0.11.

Turning to FIDQHRAALIARVTNVEWLLDALGGKVLTDEQYQAVRAEPTNPSKMRKLFSFTPAWNWTCKDLLLQALRESQSYLVEDLER [Y24G], the abundance fitness was -0.483 ± 0.062.

Turning to FIDQHRAALIARVTNVPWLLDALYGKVLTDEQYQAVRAEPTNPSKMRKLFSFTPAWNWTCKDLLLQALRESQSYLVEDLER [E17P], the abundance fitness was -0.705 ± 0.084.

For the variant FIDQHRAALIARVTNVEWLLDALYGKVLTDEQYQAPRAEPTNPSKMRKLFSFTPAWNWTCKDLLLQALRESQSYLVEDLER [V36P], the abundance fitness is -0.89 ± 0.19.

Turning to FIDQHRAALIARVTNVEWLLDALYGKVLTDEQYQAKRAEPTNPSKMRKLFSFTPAWNWTCKDLLLQALRESQSYLVEDLER [V36K], the abundance fitness was -0.325 ± 0.12.

FIDQHRAALIARVTNVEWLLDALYGKVLTDEQYQADRAEPTNPSKMRKLFSFTPAWNWTCKDLLLQALRESQSYLVEDLER [V36D]: the abundance fitness was -0.79 ± 0.21.

For the variant FIDQHRAALIARVTNVEWLLDALYGKVLTDEQYQKVRAEPTNPSKMRKLFSFTPAWNWTCKDLLLQALRESQSYLVEDLER [A35K], the abundance fitness is -0.224 ± 0.14.

In the case of FIDQHRAALIARVTNVEWLLDALYGKVATDEQYQAVRAEPTNPSKMRKLFSFTPAWNWTCKDLLLQALRESQSYLVEDLER [L28A], the abundance fitness was -0.732 ± 0.088.

For FIDQHRAALIARVTNVEWLLDALYGKVLTDEQYQAVRAEPTNPSKMRKLFSFTPAWNWTCQDLLLQALRESQSYLVEDLER [K61Q], the abundance fitness is -0.618 ± 0.12.

FIDQHRAALIARVTNVEWLLDALYGKVLTDEQYQAVAAEPTNPSKMRKLFSFTPAWNWTCKDLLLQALRESQSYLVEDLER [R37A]: the abundance fitness amounted to 0.039 ± 0.043.

As for FIDQHRAALIARVTNVEWLLDALYGKVLTDEQYQAVNAEPTNPSKMRKLFSFTPAWNWTCKDLLLQALRESQSYLVEDLER [R37N], the abundance fitness is -0.1 ± 0.21.

For the variant FIDQHRAALIARVTNVEWLLDALYGKVLTDEQYQAVSAEPTNPSKMRKLFSFTPAWNWTCKDLLLQALRESQSYLVEDLER [R37S], the abundance fitness is -0.104 ± 0.06.

As to FIDQHRAALIARVTNVEWLLDALYGKVLTDEQYQAVRAEPTNPSKVRKLFSFTPAWNWTCKDLLLQALRESQSYLVEDLER [M46V], the abundance fitness was -0.353 ± 0.054.

FIDQHRAALIARVTNVEWLLDALYGKVLTDEQYQAVRAEPTNPSKTRKLFSFTPAWNWTCKDLLLQALRESQSYLVEDLER [M46T]: the abundance fitness is -0.77 ± 0.14.

Regarding FIDQHRAALIARVTNVEWLLDAMYGKVLTDEQYQAVRAEPTNPSKMRKLFSFTPAWNWTCKDLLLQALRESQSYLVEDLER [L23M], the abundance fitness was -0.392 ± 0.085.

Turning to FIDQHRAALIARVTNVEWLLDAWYGKVLTDEQYQAVRAEPTNPSKMRKLFSFTPAWNWTCKDLLLQALRESQSYLVEDLER [L23W], the abundance fitness was -0.939 ± 0.21.

For FIDQHRAALIARVTNVEWLLDALYGKVLTDEQYQAVRAEPTNPSKMRKLFSFTPAWNWTCKDLLLQALRESQSYLVVDLER [E77V], the abundance fitness was -0.658 ± 0.08.

As to FIDQHRAALIARVTNVEWLLDALYGKVLTDEQYQAVRAEPTNPSKMRKLFSFTPAWNWTCKDLLLQALRESQSYLVPDLER [E77P], the abundance fitness was -0.66 ± 0.14.

Turning to FIDQHRAALIARVTNVEWLLDALYGKVLTDEQYQAVRAEPTNPSKMRKLFSFTPAWNWKCKDLLLQALRESQSYLVEDLER [T59K], the abundance fitness was determined as 0 ± 0.079.

On to FIDQHRAALIARVTNVEWLLDALYGKVLTDEQYQAVRAEPTNPSKMRKLFSFTPAWNWNCKDLLLQALRESQSYLVEDLER [T59N], for which the abundance fitness was 0.018 ± 0.11.

For the variant FIDQHLAALIARVTNVEWLLDALYGKVLTDEQYQAVRAEPTNPSKMRKLFSFTPAWNWTCKDLLLQALRESQSYLVEDLER [R6L], the abundance fitness is -0.362 ± 0.061.

Regarding FIDQHRAALIARVTNVEWLLDALYGKTLTDEQYQAVRAEPTNPSKMRKLFSFTPAWNWTCKDLLLQALRESQSYLVEDLER [V27T], the abundance fitness was -0.675 ± 0.1.

Turning to FIDQHRAAAIARVTNVEWLLDALYGKVLTDEQYQAVRAEPTNPSKMRKLFSFTPAWNWTCKDLLLQALRESQSYLVEDLER [L9A], the abundance fitness is -0.901 ± 0.12.
